Test results as given in patent US20220010003A1 (Boehringer Ingelheim, published 2022).
Where a chain is given by its changes, count along the chain named.

Tests used:
[1] = molecular target: T1, recombinant mouse periostin (mouse, UniProt Q62009-2 24-811, limits assumed); test: cell-based or functional assay
T1 sequence (looked up): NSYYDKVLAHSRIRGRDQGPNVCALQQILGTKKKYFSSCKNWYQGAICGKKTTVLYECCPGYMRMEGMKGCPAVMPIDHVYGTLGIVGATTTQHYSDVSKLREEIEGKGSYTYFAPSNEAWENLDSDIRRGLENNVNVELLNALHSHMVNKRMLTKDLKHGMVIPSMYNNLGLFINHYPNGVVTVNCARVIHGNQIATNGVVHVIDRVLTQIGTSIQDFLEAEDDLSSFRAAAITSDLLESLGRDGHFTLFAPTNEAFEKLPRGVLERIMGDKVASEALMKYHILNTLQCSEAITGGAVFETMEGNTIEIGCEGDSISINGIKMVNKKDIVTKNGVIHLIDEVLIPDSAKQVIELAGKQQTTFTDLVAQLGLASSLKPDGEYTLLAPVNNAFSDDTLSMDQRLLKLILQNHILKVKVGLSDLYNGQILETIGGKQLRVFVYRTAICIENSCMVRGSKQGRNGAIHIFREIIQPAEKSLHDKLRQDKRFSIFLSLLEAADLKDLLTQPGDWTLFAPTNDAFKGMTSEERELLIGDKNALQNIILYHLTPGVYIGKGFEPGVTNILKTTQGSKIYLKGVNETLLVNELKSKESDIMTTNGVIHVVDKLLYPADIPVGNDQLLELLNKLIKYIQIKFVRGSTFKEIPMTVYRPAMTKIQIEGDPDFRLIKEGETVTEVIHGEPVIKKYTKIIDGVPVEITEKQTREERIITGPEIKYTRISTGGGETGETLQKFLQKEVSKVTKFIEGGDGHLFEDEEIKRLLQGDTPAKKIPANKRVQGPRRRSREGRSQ

[2] = molecular target: T2, NB1248 (K302A) (human, UniProt Q15063 22-631, limits assumed); test: ELISA on alanine variants of POSTN EMI-FAS4, second screen
T2 construct: also called POSTN EMI-FAS4 K302A
T2 sequence: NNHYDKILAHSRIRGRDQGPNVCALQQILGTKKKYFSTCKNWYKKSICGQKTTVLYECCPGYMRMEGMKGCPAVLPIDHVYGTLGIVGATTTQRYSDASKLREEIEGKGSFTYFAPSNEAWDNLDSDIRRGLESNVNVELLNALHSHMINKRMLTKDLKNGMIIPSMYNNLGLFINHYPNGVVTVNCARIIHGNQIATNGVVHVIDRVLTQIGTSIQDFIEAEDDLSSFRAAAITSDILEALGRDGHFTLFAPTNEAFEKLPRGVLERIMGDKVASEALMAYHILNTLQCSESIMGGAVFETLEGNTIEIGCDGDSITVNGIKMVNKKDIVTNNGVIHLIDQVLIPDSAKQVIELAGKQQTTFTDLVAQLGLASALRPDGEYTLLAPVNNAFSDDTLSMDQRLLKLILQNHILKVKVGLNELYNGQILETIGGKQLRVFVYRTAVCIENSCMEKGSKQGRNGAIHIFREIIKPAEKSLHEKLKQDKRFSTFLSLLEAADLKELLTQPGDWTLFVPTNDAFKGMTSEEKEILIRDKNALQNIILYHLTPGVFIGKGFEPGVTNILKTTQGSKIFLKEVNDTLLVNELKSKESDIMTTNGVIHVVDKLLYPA

[3] = molecular target: T3, NB1246 (V295A) (human, UniProt Q15063 22-631, limits assumed); test: as above
T3 construct: also called POSTN EMI-FAS4 V295A
T3 sequence: T2 sequence with V274A, A281K

[4] = molecular target: T4, NB1243 (L287A) (human, UniProt Q15063 22-631, limits assumed); test: as above
T4 construct: also called POSTN EMI-FAS4 L287A
T4 sequence: T2 sequence with L266A, A281K

- CAA IC50 [1]: 26 nM
- loss from the max signal [2]: > 50%
- loss from the max signal [3]: > 50%
- loss from the max signal [4]: > 50%
B1: NB0828 (antibody, V domains shown)
VH: QVQLVQSGAEVKKPGASVKVSCKASGYTFTSYGISWVRQAPGQGLEWMGWISAYNGNTNYAQKLQGRVTMTTDTSTSTAYMELRSLRSDDTAVYYCARDMLVVPFDYWGQGTLVTVSS
VL: QSVLTQSSSASGTPGQTVTVSCSGSSSDIGSNRVNWYQQLPGTAPKLLIYSNDQRPSGVPDRFSGSKSGTSASLAISGLQSADEADYYCAAWDDSLSTYVFGSGTKVTVL
